B1: GCH056-G1dh/none-Hi-Kn010G3/L0011-k0 (antibody, V domains shown)
VH: QVQLVQSGAEVKKPGASVTVSCKASGYTFTDYEMHWIRQPPGEGLEWIGAIDGETPDTAYSQKFEGRVTLTADKSTSTAYMELSSLTSEDTAVYYCTRFYSYTYWGQGTLVTVSS
VL: DIVMTQSPLSLPVTPGEPASISCRSSQPLVHSNRNTYLHWYQQKPGQAPRLLIYKVSNRFSGVPDRFSGSGSGTDFTLKISRVEAEDVGVYYCGQGTQVPYTFGQGTKLEIKR
notes: one-arm
B2: GCH066-G1dh/none-Hi-Kn010G3/L0000-k0 (antibody, V domains shown)
VH: QVQLVQSGAEVKKPGASVTVSCKASGYTFTDYEMHWIRQPPGEGLEWIGAIDGWTPDTAYSEKFKGRVTLTADKSTSTAYMELSSLTSEDTAVYYCTRFYSYTYWGQGTLVTVSS
VL: DIVMTQSPLSLPVTPGEPASISCRSSQSLVHSNRNTYLHWYQQKPGQAPRLLIYKVSNRFSGVPDRFSGSGSGTDFTLKISRVEAEDVGVYYCGQGTQVPYTFGQGTKLEIKR
notes: one-arm
B3: GCH060-G1dh/none-Hi-Kn010G3/L0222-k0 (antibody, V domains shown)
VH: QVQLVQSGAEVKKPGASVTVSCKASGYTFEDYEMHWIRQPPGEGLEWIGAIDGETPDTAYSQKFEGRVTLTADKSTSTAYMELSSLTEEDTAVYYCTRFYSYTYWGQGTLVTVSS
VL: DIVMTQSPLSLPVTPGEPASISCRSSQSPVHSNRNTYIQWYQQKPGQAPRLLIYKVSNRFSGVPDRFSGSGSGTDFTLKISRVEAEDVGVYYCYQGTQVPYTFGQGTKLEIKR
notes: one-arm
B4: GCH094-G1dh/none-Hi-Kn010G3/L0000-k0 (antibody, V domains shown)
VH: QVQLVQSGAEVKKPGASVTVSCKASGYTFTDYEMHWVRQAPGEGLEWMGAIDGETPDTAYSEKFKGRVTLTADKSTSTAYMELSSLTSEDTAVYYCTRFYSYTYWGQGTLVTVSS
VL: DIVMTQSPLSLPVTPGEPASISCRSSQSLVHSNRNTYLHWYQQKPGQAPRLLIYKVSNRFSGVPDRFSGSGSGTDFTLKISRVEAEDVGVYYCGQGTQVPYTFGQGTKLEIKR
notes: one-arm
B5: GCH073-G1dh/none-Hi-Kn010G3/L0011-k0 (antibody, V domains shown)
VH: QVQLVQSGAEVKKPGASVTVSCKASGYTFTDYEMHWIRQPPGEGLEWIGAIDGPTPDTAYSQKFEGRVTLTADKSTSTAYMELSSLTSEDTAVYYCTRFYSYTYWGQGTLVTVSS
VL: DIVMTQSPLSLPVTPGEPASISCRSSQPLVHSNRNTYLHWYQQKPGQAPRLLIYKVSNRFSGVPDRFSGSGSGTDFTLKISRVEAEDVGVYYCGQGTQVPYTFGQGTKLEIKR
notes: one-arm
B6: GCH061-G1dh/none-Hi-Kn010G3/L0000-k0 (antibody, V domains shown)
VH: QVQLVQSGAEVKKPGASVKVSCKASGYTFTDYEMHWVRQAPGQGLEWIGAIDGKTPDTAYSQKFKGRVTLTADKSTSTAYMELSSLTSEDTAVYYCTRFYSYTYWGQGTLVTVSS
VL: DIVMTQSPLSLPVTPGEPASISCRSSQSLVHSNRNTYLHWYQQKPGQAPRLLIYKVSNRFSGVPDRFSGSGSGTDFTLKISRVEAEDVGVYYCGQGTQVPYTFGQGTKLEIKR
notes: one-arm
B7: GCH065-G1dh/none-Hi-Kn010G3/L0000-k0 (antibody, V domains shown)
VH: QVQLVQSGAEVKKPGASVTVSCKASGYTFTDYEMHWIRQPPGEGLEWIGAIDGPTPDTAYSEKFKGRVTLTADKSTSTAYMELSSLTSEDTAVYYCTRFYSYTYWGQGTLVTVSS
VL: DIVMTQSPLSLPVTPGEPASISCRSSQSLVHSNRNTYLHWYQQKPGQAPRLLIYKVSNRFSGVPDRFSGSGSGTDFTLKISRVEAEDVGVYYCGQGTQVPYTFGQGTKLEIKR
notes: one-arm
B8: GCH057-G1dh/none-Hi-Kn010G3/L0222-k0 (antibody, V domains shown)
VH: QVQLVQSGAEVKKPGASVTVSCKASGYTFTDYEMHWIRQPPGEGLEWIGAIDGETPDTAYSEKFEGRVTLTADKSTSTAYMELSSLTSEDTAVYYCTRFYSYTYWGQGTLVTVSS
VL: DIVMTQSPLSLPVTPGEPASISCRSSQSPVHSNRNTYIQWYQQKPGQAPRLLIYKVSNRFSGVPDRFSGSGSGTDFTLKISRVEAEDVGVYYCYQGTQVPYTFGQGTKLEIKR
notes: one-arm
B9: GCH073-G1dh/none-Hi-Kn010G3/L0201-k0 (antibody, V domains shown)
VH: QVQLVQSGAEVKKPGASVTVSCKASGYTFTDYEMHWIRQPPGEGLEWIGAIDGPTPDTAYSQKFEGRVTLTADKSTSTAYMELSSLTSEDTAVYYCTRFYSYTYWGQGTLVTVSS
VL: DIVMTQSPLSLPVTPGEPASISCRSSQPPVHSNRNTYLHWYQQKPGQAPRLLIYKVSNRFSGVPDRFSGSGSGTDFTLKISRVEAEDVGVYYCGQGTQVPYTFGQGTKLEIKR
notes: one-arm
B10: GCH062-G1dh/none-Hi-Kn010G3/L0000-k0 (antibody, V domains shown)
VH: QVQLVQSGAEVKKPGASVKVSCKASGYTFTDYEMHWIRQPPGQGLEWMGAIDGKTPDTAYSQKFKGRVTLTADKSTSTAYMELSSLTSEDTAVYYCTRFYSYTYWGQGTLVTVSS
VL: DIVMTQSPLSLPVTPGEPASISCRSSQSLVHSNRNTYLHWYQQKPGQAPRLLIYKVSNRFSGVPDRFSGSGSGTDFTLKISRVEAEDVGVYYCGQGTQVPYTFGQGTKLEIKR
notes: one-arm
B11: GCH065-G1dh/none-Hi-Kn010G3/L0201-k0 (antibody, V domains shown)
VH: QVQLVQSGAEVKKPGASVTVSCKASGYTFTDYEMHWIRQPPGEGLEWIGAIDGPTPDTAYSEKFKGRVTLTADKSTSTAYMELSSLTSEDTAVYYCTRFYSYTYWGQGTLVTVSS
VL: DIVMTQSPLSLPVTPGEPASISCRSSQPPVHSNRNTYLHWYQQKPGQAPRLLIYKVSNRFSGVPDRFSGSGSGTDFTLKISRVEAEDVGVYYCGQGTQVPYTFGQGTKLEIKR
notes: one-arm
B12: GCH098-G1dh/none-Hi-Kn010G3/L0201-k0 (antibody, V domains shown)
VH: QVQLVQSGAEVKKPGASVTVSCKASGYTFTDYEMHWVRQAPGEGLEWMGAIDGPTPDTAYSEKFKGRVTLTADKSTSTAYMELSSLTSEDTAVYYCTRFYSYTYWGQGTLVTVSS
VL: DIVMTQSPLSLPVTPGEPASISCRSSQPPVHSNRNTYLHWYQQKPGQAPRLLIYKVSNRFSGVPDRFSGSGSGTDFTLKISRVEAEDVGVYYCGQGTQVPYTFGQGTKLEIKR
notes: one-arm
B13: GCH067-G1dh/none-Hi-Kn010G3/L0000-k0 (antibody, V domains shown)
VH: QVQLVQSGAEVKKPGASVTVSCKASGYTFTDYEMHWIRQPPGEGLEWIGAIDGYTPDTAYSEKFKGRVTLTADKSTSTAYMELSSLTSEDTAVYYCTRFYSYTYWGQGTLVTVSS
VL: DIVMTQSPLSLPVTPGEPASISCRSSQSLVHSNRNTYLHWYQQKPGQAPRLLIYKVSNRFSGVPDRFSGSGSGTDFTLKISRVEAEDVGVYYCGQGTQVPYTFGQGTKLEIKR
notes: one-arm
B14: GCH073-G1dh/none-Hi-Kn010G3/L0000-k0 (antibody, V domains shown)
VH: QVQLVQSGAEVKKPGASVTVSCKASGYTFTDYEMHWIRQPPGEGLEWIGAIDGPTPDTAYSQKFEGRVTLTADKSTSTAYMELSSLTSEDTAVYYCTRFYSYTYWGQGTLVTVSS
VL: DIVMTQSPLSLPVTPGEPASISCRSSQSLVHSNRNTYLHWYQQKPGQAPRLLIYKVSNRFSGVPDRFSGSGSGTDFTLKISRVEAEDVGVYYCGQGTQVPYTFGQGTKLEIKR
notes: one-arm
B15: GCH059-G1dh/none-Hi-Kn010G3/L0000-k0 (antibody, V domains shown)
VH: QVQLVQSGAEVKKPGASVTVSCKASGYTFTDYEMHWIRQPPGEGLEWIGAIDGETPDTAYSQKFEGRVTLTADKSTSTAYMELSSLTEEDTAVYYCTRFYSYTYWGQGTLVTVSS
VL: DIVMTQSPLSLPVTPGEPASISCRSSQSLVHSNRNTYLHWYQQKPGQAPRLLIYKVSNRFSGVPDRFSGSGSGTDFTLKISRVEAEDVGVYYCGQGTQVPYTFGQGTKLEIKR
notes: one-arm
B16: GCH094-G1dh/none-Hi-Kn010G3/L0201-k0 (antibody, V domains shown)
VH: QVQLVQSGAEVKKPGASVTVSCKASGYTFTDYEMHWVRQAPGEGLEWMGAIDGETPDTAYSEKFKGRVTLTADKSTSTAYMELSSLTSEDTAVYYCTRFYSYTYWGQGTLVTVSS
VL: DIVMTQSPLSLPVTPGEPASISCRSSQPPVHSNRNTYLHWYQQKPGQAPRLLIYKVSNRFSGVPDRFSGSGSGTDFTLKISRVEAEDVGVYYCGQGTQVPYTFGQGTKLEIKR
notes: one-arm
B17: GCH098-G1dh/none-Hi-Kn010G3/L0000-k0 (antibody, V domains shown)
VH: QVQLVQSGAEVKKPGASVTVSCKASGYTFTDYEMHWVRQAPGEGLEWMGAIDGPTPDTAYSEKFKGRVTLTADKSTSTAYMELSSLTSEDTAVYYCTRFYSYTYWGQGTLVTVSS
VL: DIVMTQSPLSLPVTPGEPASISCRSSQSLVHSNRNTYLHWYQQKPGQAPRLLIYKVSNRFSGVPDRFSGSGSGTDFTLKISRVEAEDVGVYYCGQGTQVPYTFGQGTKLEIKR
notes: one-arm
B18: GCH057-G1dh/none-Hi-Kn010G3/L0000-k0 (antibody, V domains shown)
VH: QVQLVQSGAEVKKPGASVTVSCKASGYTFTDYEMHWIRQPPGEGLEWIGAIDGETPDTAYSEKFEGRVTLTADKSTSTAYMELSSLTSEDTAVYYCTRFYSYTYWGQGTLVTVSS
VL: DIVMTQSPLSLPVTPGEPASISCRSSQSLVHSNRNTYLHWYQQKPGQAPRLLIYKVSNRFSGVPDRFSGSGSGTDFTLKISRVEAEDVGVYYCGQGTQVPYTFGQGTKLEIKR
notes: one-arm
B19: GCH056-G1dh/none-Hi-Kn010G3/L0201-k0 (antibody, V domains shown)
VH: QVQLVQSGAEVKKPGASVTVSCKASGYTFTDYEMHWIRQPPGEGLEWIGAIDGETPDTAYSQKFEGRVTLTADKSTSTAYMELSSLTSEDTAVYYCTRFYSYTYWGQGTLVTVSS
VL: DIVMTQSPLSLPVTPGEPASISCRSSQPPVHSNRNTYLHWYQQKPGQAPRLLIYKVSNRFSGVPDRFSGSGSGTDFTLKISRVEAEDVGVYYCGQGTQVPYTFGQGTKLEIKR
notes: one-arm
B20: GCH068-G1dh/none-Hi-Kn010G3/L0000-k0 (antibody, V domains shown)
VH: QVQLVQSGAEVKKPGASVTVSCKASGYTFTDYEMHWIRQPPGEGLEWIGAIDGKTPDTAYSEKFKGRVTLTADKSTSTAYMELSSLTSEDTAVYYCTRFYSYTYWGQGTLVTVSS
VL: DIVMTQSPLSLPVTPGEPASISCRSSQSLVHSNRNTYLHWYQQKPGQAPRLLIYKVSNRFSGVPDRFSGSGSGTDFTLKISRVEAEDVGVYYCGQGTQVPYTFGQGTKLEIKR
notes: one-arm
B21: GCH064-G1dh/none-Hi-Kn010G3/L0000-k0 (antibody, V domains shown)
VH: QVQLVQSGAEVKKPGASVKVSCKASGYTFTDYEMHWIRQPPGQGLEWIGAIDGKTPDTAYSQKFKGRVTLTADKSTSTAYMELSSLRSEDTAVYYCTRFYSYTYWGQGTLVTVSS
VL: DIVMTQSPLSLPVTPGEPASISCRSSQSLVHSNRNTYLHWYQQKPGQAPRLLIYKVSNRFSGVPDRFSGSGSGTDFTLKISRVEAEDVGVYYCGQGTQVPYTFGQGTKLEIKR
notes: one-arm
B22: GCH098-G1dh/none-Hi-Kn010G3/L0011-k0 (antibody, V domains shown)
VH: QVQLVQSGAEVKKPGASVTVSCKASGYTFTDYEMHWVRQAPGEGLEWMGAIDGPTPDTAYSEKFKGRVTLTADKSTSTAYMELSSLTSEDTAVYYCTRFYSYTYWGQGTLVTVSS
VL: DIVMTQSPLSLPVTPGEPASISCRSSQPLVHSNRNTYLHWYQQKPGQAPRLLIYKVSNRFSGVPDRFSGSGSGTDFTLKISRVEAEDVGVYYCGQGTQVPYTFGQGTKLEIKR
notes: one-arm

target: T1, human GPC3 (human, UniProt P51654 25-563); assay: SPR
T1 construct: range 25-563; soluble analyte; also called soluble human GPC3; glypican 3
T1 sequence (P51654 25-563 limits assumed): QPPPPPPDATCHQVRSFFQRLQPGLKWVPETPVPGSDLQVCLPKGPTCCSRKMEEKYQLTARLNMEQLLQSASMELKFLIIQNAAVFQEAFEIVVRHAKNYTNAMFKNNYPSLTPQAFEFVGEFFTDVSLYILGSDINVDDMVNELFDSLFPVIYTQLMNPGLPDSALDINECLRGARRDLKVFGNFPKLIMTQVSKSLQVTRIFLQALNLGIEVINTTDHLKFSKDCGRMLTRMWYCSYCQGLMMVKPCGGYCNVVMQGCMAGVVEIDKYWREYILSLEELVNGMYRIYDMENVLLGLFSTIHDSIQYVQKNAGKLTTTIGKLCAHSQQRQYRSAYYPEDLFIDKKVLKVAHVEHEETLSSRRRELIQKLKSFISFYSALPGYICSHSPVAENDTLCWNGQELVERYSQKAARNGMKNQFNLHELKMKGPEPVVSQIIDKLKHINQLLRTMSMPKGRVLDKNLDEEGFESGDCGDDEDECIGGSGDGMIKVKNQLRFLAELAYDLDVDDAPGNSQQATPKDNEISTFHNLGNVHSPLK

B1 and B2 are within 1.5-fold of each other in Kd: 4.31 nM for the first, 4.29 nM for the second.

Going from B3 to B4, the Kd rises from 0.000642 nM to 5.89 nM (9200-fold). The first binds more tightly here.

First: B5
Second: B6
The Kd of the first is 5.6-fold lower: 0.91 nM for the first, 5.13 nM for the second. The first binds more tightly here.

Compared with B7, B8 is 760-fold lower in Kd: 1.41 nM for the first, 0.00185 nM for the second. The second binds more tightly here.

Compared with B9, B10 is 110-fold higher in Kd: 0.035 nM for the first, 3.73 nM for the second.

B11 and B12 are within 1.5-fold of each other in Kd: 0.0774 nM for the first, 0.111 nM for the second.

Compared with B13, B14 is 2.6-fold lower in Kd: 5.24 nM for the first, 2 nM for the second. The second binds more tightly here.

Compared with B15, B16 is 4.9-fold lower in Kd: 5.7 nM for the first, 1.17 nM for the second.

Compared with B17, B18 is 3.2-fold higher in Kd: 1.77 nM for the first, 5.61 nM for the second.

First: B19
Second: B20
The Kd of the first is 5.4-fold lower: 1.16 nM for the first, 6.23 nM for the second. The first binds more tightly here.

Going from B21 to B22, the Kd falls from 4.14 nM to 0.802 nM (5.2-fold).
